Test results: the nanobody polyreactivity screen of Harvey et al. (2022)

Experiment: yeast display, Sf9 membrane polyspecificity reagent, FACS + sequencing; frameworks hold sequencing errors
Method in brief: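 After 36–48 hours of galactose induction, yeast (Saccharomyces cerevisiae BJ5465) displaying a synthetic nanobody library were stained at 4 °C for 1 hour with 10% biotinylated, detergent-solubilized Sf9 membrane reagent. Streptavidin microbeads enriched the stained cells before FACS sorting into low and high (top ~1%) gates on anti-HA and streptavidin fluorescence. Each clone's polyreactivity label reflects its gate of origin.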

Sequence	polyreactivity (PSR sort gate)
QVQLVESGGCLVQAGGSLRLSCAASGITFKYYVMGWYRQAPGKEREFVAAISWGGGSPYYADSVKGRCTISRDNAKNTVYVQMNSLKPEDTAVYYCAATSAYGRYRYYYWGQGTQVTVSS	high polyreactivity
QVQLVESGGGLVQAGGSLRLSCAASGLTFKRYGMGWYIQAPGKERELVAAINWRGTSTYYADSVKGRFTISRDNAKNTVYLQMNSLKPEDTAVYYCAAVGPFYGPGEYWGQGTQVTVSS	high polyreactivity
QVQLVESGGGLVEAGGSLRLSCAASGSILYYNAMGWYRQAPGKERELVAAISTRGGSTYYADSVKGRFTSSRDNAKKTVYLQMNSLKPEDTAVYYCAADHNVIWGYYYWGQGTQVTVSS	high polyreactivity
QVHLVESGGGLVQAGGSLRLSCAASGRTIDRNTMGWYRQAPVKERELVATITWSVGRTYYADSVKGRFTISRDNGKITVYVQMISMKPEDTGVYFCAAGIYAYKYESWGHGTQVTVSS	high polyreactivity
QDQLVESGGGLVQAGGSLRLSCAASGRIFAGYTMGWSRQAPGKERELVAAISWSGGRTYYADSVKGRFTISRDNAKNTVYLQMNSLKPEDTAVYYCNIVGWYHNYYYWGQGTQVTVSS	high polyreactivity
QVQLVESGGGLVQAGGSLRLSCAASGIILYYYAMGWYRQAPGKERELVAAINWSGGSTSYADSVKGRFTISRDNAKNTVYLQMNSLKPEDTAVYYCAARLGSWHYQVWNDKYEYWGQGTQVTVSS	high polyreactivity
QVQLVESGGGLVQAGGSLRLSCADSGRIFHYNAMGWYRQAPRKERELVAAISTGGSTNYADSVKGRFTISRDNAKNTVYLQMNSLNPEDTAVYYCAADHPVTYPTSKFDYCGQGTQVTVSS	low polyreactivity
QVQLVESGGGLVQAGGSLRLSCAASGYTFGSYAMGWYRQAPGKERELVAAITRRGGSTYYADSVKGRFTISRDNAKNTVYLQMTSLKPEDTEVYYCAKRSRDYVSSFLTSHANDYWGQGTQVTVSS	high polyreactivity
QVQLEESGGGLEQAGGSLRLSCAATGSIFNFYAMAWYIRAPGKERELVAAITRSGGSTYYADSVKGRFTISRDNAKNTVYLQMNSLIPEDTAVYYCSAASRKRTSREPLDYWGQGTQVTVSS	high polyreactivity
QVQLVESGGGLVQAGGSLRLSCAASGITFEYFDRGWYRQAPGKERELVAAISWSTDITYADSVKGRFTISRDNAKNTVYLQMNSLKPEDTAVYYCAASTYEYTSYDYWGQGTQVTVSS	low polyreactivity
QVQLVESGGGLVQAGGSLRLSCSASGSTFTYYAMGWYRQAPVKERELVADIDFSGTSTYYADSVKGRFTVSRDNAKNTVYLQMNSLKPEDTAVYYCATDDYNWFDYDYWGQGTHVTVSS	low polyreactivity
QFQLVESGGGLVQAGGSLRLSYAASGRTFSSYAMGWYRQAPGKERELVAAITKRGGNTYYADSVKGRFTISRDNAKNTVYLQMNSLKPEDTAVYYCAAGWERFRNYNYWGQGTQVTVSS	high polyreactivity
QVQLVESGGGLVQAGGSLRLSCAASGTILSFNAMAWYRQAPGKERELVAAMSRGGSTNYADSVKGRFTISRDNEKNTVYLQMNCLIPEDTAVYYCAALRPYGKEDVSDGGMDYWGQGTQVTVSS	high polyreactivity
QVQLVESGGGLVQAGGSLRLSCADSGRTFKFNAMGWYRQAPGKERELVVGITWTGSTTSYADSVKGRFTISRDNAKNTVYLQMNSLKPEDTAVYYCAADKIRFWYHGFYYRGQGTQVTVSS	low polyreactivity
QVQLVESGGGLVQAGGSLRLSCAASGLIFDVYDMGWYRQAPGKERELVAAISTTGGSTFYADSVKGRFTISRDNAKNTVYLQMYSLKPEDTAVYYCNADWAPTGFSGGYPYDYWGQGTQVTVSS	high polyreactivity
QVQLVESGGGLVQAGGSLRLSCAASGITFFTYTMGWYRQAPGKERELVARIRWDGGSTYYADSVKGRFTISRDNAKNTVYLQMNSLKPEDTAVYYCAADYPYSTYDYWGQVTQVTVSS	low polyreactivity
QVQLIESGGGLVQAGGSLRLSCAASGSIFYINTMGWYRQAPGKERELVATIRTSGGSTYADSVKGRFTISRDNAKNTVYLQMNSLKPEDTAVYYCAVRRYRSSSYGYYSWGQGTQVTVSS	high polyreactivity
QVQLVESGGGIVQAGGSLSLSCAASGSTFSIYAMGWSRQATGTEREVVAAISGSGSRTYYADSVKGRFTISRDNEKNSVYLQMNMLKPEDTAVYYCAALGRHRDGFDFNYWGQGTQVTLSS	high polyreactivity
QDQLVESGGGLVQAGGSLRLSCAASGSIFEINAMGWYRQSPGKERELVAAITGSGGSTHYADSVKGRFTISRDNAKNTVYLQMNSLKPEDTAVYYCAAVPRYQYGYWGQGTQVTVSS	low polyreactivity
QVQLVESGGGLVQAGGSLRLSCAASGFIFWTYAMGWYRQAPGKERELVAAITGGGGTTYYADSVKGRFTISRDNAKNTVYLQMNSLKPEDTAVYYCAAKQYRSRSGGYWGQGTQVTVSS	high polyreactivity
QVQLVESGGGLVQAGGSLRLSCAASGFTFRRYDMGWYRQAPGKERELVAAITASGGNTYYADSVKGRFTISRDNAKNTVYLQMNSLKPEDTAVYYCAARQYRYKYDYWGQGTQVTVSS	high polyreactivity
QVQLVESGGGLVQAGRSLRLSCAASGRIIYGYPMGWYRQAPGIERELVAAITATYYADSVKGRFTISRDNAKNTVYLQMNSLKPEDTAVYYCNAYLSPKQPLSPPDPTFEGGYWGQGTQVTVST	low polyreactivity

Sequence	polyreactivity (PSR sort gate)
QVQLVESDGGLVQAGGSLRLSCAASGSTFNVYAMGWNRQAPGKERELVAAITSGGSTYYADSVKGRFTISRDNANNTVYLQMISQKPEDTAVYYCADDVSLSVFKLDYWGQGTQLTVSS	low polyreactivity
QVQLVESGGGLVQAGGSLRLSCAASGRILSSYAMGWYRQAPGKERELVARISYSGGRTYYADSVKGRFTISRDNAKNTVYLQMNSLKPEDTAVYYCAAVSRVHFSYIYDYWGQGTQVTVSS	high polyreactivity
QVQLVESGGGLVQAGGSLRLSCAASGITFYVYAMGWYRKAPGKERELVAAITSNGASTYYADSVKGRFTISRDNAKNTVYLQMNSLKPEDTAVYYCARRIKFPYHSYVGEYDYWGQGTQVTVSS	low polyreactivity
QVQLVESGGGVVQAGGSLRLSCAAYGRTFYVYTLGWYRPAPGKERELVAANTSGGSTNYADCVMGRFTISRDYAKNTVYLQMNSLKPEDTAVYYCAAKRYNRLRSYRYSDREDYWGQGTQVTVSS	high polyreactivity
QDQLVESGGGLVQAGGSLRLISAASGSTFRKYAMGWYRQAPGKEREFVAASTKRGGSTYYADSVKGRFTISRDNAKNTVYLLLNSLKPEDTAVYYCAAYKQDIGYYWGQGTQVTVSS	high polyreactivity
QVQLVESGGGLVQAGGSLRLRCAASGRTFSGYAMGWYRQAPGKERELVAAITSGGNTYYADSVKGRFTISRDNAKNTVYLQMNSLKPEDTAVYYCAVVDYLWLLQLWLSDYWGQGTQVTVSS	low polyreactivity
QVQLVESGGCLVQAGGSLRLSCASSGSTFHSYAMGWYRQAPGKERELVAAISRSGGSTYYADSVKGRFTISRDNAKNTVYLQMNSLKPEDTAVYYCAARDLQFSGYYYWGQGTQVTVSS	high polyreactivity
QVQLVESGGGLVQAGGSLRLSCAASGFIFSHYAMGWYRQSPGKEREFVATSSKRGGSTTYADSVKGRFTISRDNAKNTVYLQMNSLKPEDTAVYYCAADRYRSFERYDYWGQGTQVTVSS	high polyreactivity
QDQLVESGGGIVQAGGSLRLSCAASGRTFTAYAMGWYRQAPGKERELVAAISSSGGSTYYADSEKGRFTISRDNAKNTVYLQMNSLKPDDTAVYYCAALGGYRYGYDYWGQGTQVTVSS	high polyreactivity
QVQLVESGGGLVQAGGSLRLSCAASGRTFRYYTMGWYRQAPGKERELVAAISRGGRTYYADSVKGRFTISRDNAKNTVYLQMNSLKPEDTAVYYCAAQLFREYYYWGQGTQVTVSS	high polyreactivity
QVQLVESGGRLVQAGGTLPLSSAASGLIFGYYAMGFYIQAPGKERELDADISSGGSTNYADSVKGRFTISRENAKNTVYLQMNRLTPEDTAVFYCAARYSRWFGYCGQGTQVTVSS	high polyreactivity
QVHLVESGGGLVQAGGSLRLSCAASGSIIRYYAMGWYRQAPGKERELVAVITRGGSTYYADSVKGRFTISRDNAKSTVYLQMNSLKPEDTAVYYCAADYWPAGLDRGYWGQGTQVTVSS	low polyreactivity
QVQLVESGGGLVQAGGSLRLSCAASGSTFKTYTMGWYRQAPGKERELVAGITSGGSTSYADSVKGRFTISRDNAKNTVYLQMNSLKPEDTAVYYCAADTSYDSYEYWGQGTQVTVSS	low polyreactivity
QVQHVESGGGLVQAGGSLRLSCAASGRIFGWYAMGWYRQAPGKERELVAVISWRGRTYYADSVKGRFTISRDNAKNTVYLQMNSLKPEDTAVYYCNARSRSAYDYWGQGTQVTVSS	high polyreactivity
QVQLVESGRGLVQAGGSLRLSCAASGSTFRGNAMGWYRQAPGKERELVAAISVTGGSTYYADSVKVRFTISRDNAKNTVYLQMNSLKPEDTAVYYCADRVQRGQYSFVRDYYYWGQGTQVTVSS	high polyreactivity
QDQLVESGGGLVQAGGSLRLSCAASGRTFGDKALGWYRQAPGKERELVAAISWSGGRTYYADSVKGRFTISRDYGKNTVYLQMNSLKPEDTAVYYCAARNNRYPLYNYWGQGTQVTVSS	low polyreactivity
QVQLVESGGGLVQAGGSLRLSCAASGYIFPEYVMGWYRQAPGKERELVAVITWDGTSTYADSVKGRFTISRDNAKNTVYLQMNSLKPEDTAVYYCAADTNYYVDTAGYGDGLDSWGQGTQVTVSS	low polyreactivity
QVQLVESGGGLVQAGGSLRLICAASGRTFTLNVMGWYRQAPGKETEFVATITWGGGRTYYADSVKGRFTISRDNAKNTVYLQMNSLKPVDTAVYYCAGQLAKTIRGRGYNSWGQGTQVTVSS	low polyreactivity
QVQLVESGGGLVQAGGSLRLSCAASGRTFKPYAMGWYRQAPGKERELVAVISSTGSTKYADSVKGRFTISRDNAKNTVYLQMNSLKPEDTAVYYCAAQNTYIYYWGQGTQVTVSS	high polyreactivity
QVQLVESGAGLVQAGGSLRLSCAASGRTFRINTMGWSIQAPGKERELVATITGSGGSTYYADSVKGRFTISRDNAKNTVYLQMNSLKPEDTAVYYCAAVGDQNEYDYWGQGTQVTVSS	low polyreactivity
QVQLVESGGGIVQAGGSLRLSCAASGSIFSFNAMGWYRQAPGKERELVAAISRGGSTYYADSVKGRFTISRDNAKNTVYLQMNSLKPEDTAVYYCAADIYGHSYSYYLGEYWGQGTQVTVSS	high polyreactivity
